We go through 2 molecules from patent US10400249B2, “HPPD variants and methods of use” (priority 2014, dated 2019).

The subject of this assay is maize T0 events. Briefly: greenhouse spray test of maize T0 events for tolerance to Cmpd. 4. As to conditions: Cmpd. 4 at 100 g AI/ha; for number of maize T0 events in herbicide tolerance class 0 (41%-100% damaged leaf area) / number of maize T0 events in herbicide tolerance class 1 (16%-41% damaged leaf area) / number of maize T0 events in herbicide tolerance class 2 (6%-15% damaged leaf area) / number of maize T0 events in herbicide tolerance class 3 (0%-5% damaged leaf area): six days after application. The assay is classed as in vivo. The text has this:
Constructing the plant expression cassette for stable expression in the maize plant and maize transformation are well known in the art and in this particular example the methods were described and used from the PCT patent publication WO2014/043435 and WO2008/100353. The polynucleotide sequences encoding the HPPD variants in this application have been stacked with a DNA sequence encoding an EPSPS protein variant to confer tolerance to herbicides, which target the EPSPS. The EPSPS gene was isolated and mutated from Arthrobacter globiformis (WO2008/100353) and joined in-frame to a transit peptide sequence to guide translocation of the translated protein to the chloroplast.
The corresponding HPPD variants were cloned with the same promoter, chloroplast transit peptide, and terminator sequence as described for the EPSPS gene expression cassette. The coding sequences for both genes have been codon optimized for maize expression. For the maize transformation ears are best collected 8-12 days after pollination. Embryos were isolated from the ears, and those embryos 0.8-1.5 mm in size were preferred for use in transformation. Embryos were plated scutellum side-up on a suitable incubation media, and incubated overnight at 25° C. in the dark.
However, it was not necessary per se to incubate the embryos overnight. Embryos are contacted with an Agrobacterium strain containing the appropriate vectors having a nucleotide sequence of the present invention for Ti plasmid mediated transfer for about 5-10 min, and then plated onto co-cultivation media for about 3 days (25° C. in the dark). After co-cultivation, explants were transferred to recovery period media for about five days (at 25° C. in the dark). Explants were incubated in selection media with glyphosate for up to eight weeks, depending on the nature and characteristics of the particular selection utilized. After the selection period, the resulting callus were transferred to embryo maturation media, until the formation of mature somatic embryos is observed. The resulting mature somatic embryos were then placed under low light, and the process of regeneration was initiated as known in the art. The resulting shoots were allowed to root on rooting media, and the resulting plants were transferred to nursery pots and propagated as transgenic plants. Plants were routinely analyzed for the expression and presence of the transgenes using the ELISA protein detection method. Only plants recovering in the selection media and having a detectable HPPD transgene protein expression were used for the herbicide tolerance analysis.
Regenerated T0 events from tissue culture were transplanted into two inch square pots with synthetic soil (Fafard® Mix) and controlled-released fertilizer (Haifa Multicote™; polymer-coated controlled-release fertilizer, NPK Pro 18-6-12+ Micronutrients) and cultivated in the greenhouse (GH) under supplementary high pressure sodium light for 12 days at a maximum of 30° C. during the day and a minimum of 22° C. at night. Fully recovered plants were transferred into five inch square pots filled with synthetic soil and control released fertilizer under the same environmental conditions. After seven days the T0 plants have been sprayed with 2-chloro-3-(methylsulfanyl)-N-(1-methyl-1H-tetrazol-5-yl)-4-(trifluoromethyl)benzamide (Cmpd. 4); at agronomic relevant concentration of 100 g AI/ha (with “g AI/ha” meaning “gram of active ingredient per hectare”) prepared from a WP20 (wettable powder 20%) formulation supplemented with esterified vegetable oil mixture (Hasten™ spray adjuvants, 0.578% v/v) and ammonium sulphate (AMS, 0.97% w/v). The herbicide treatment was conducted in a DeVries Tracker Sprayer system with standard application protocols, which are well known in the art. As a spray control T0 events have been sprayed with the adjuvant mixture lacking the herbicide. […]

B1: FLP136: PfHPPD variant P215L, E335P, G336F (protein)
chain: MADLYENPMGLMGFEFIEFASPTPGTLEPIFEIMGFTKVATHRSKNVHLYRQGEINLILNNEPNSIASYFAAEHGPSVCGMAFRVKDSQKAYNRALELGAQPIHIDTGPMELNLPAIKGIGGAPLYLIDRFGEGSSIYDIDFVYLEGVERNPVGAGLKVIDHLTHNVYRGRMVYWANFYEKLFNFREARYFDIKGEYTGLTSKAMSAPDGMIRILLNEESSKGAGQIEEFLMQFNGEGIQHVAFLTDDLVKTWDALKKIGMRFMTAPPDTYYEMLEGRLPDHGEPVDQLQARGILLDGSSVEGDKRLLLQIFSETLMGPVFFEFIQRKGDDGFGPFNFKALFESIERDQVRRGVLTAD
modifications: HPPD variant - FLP136
notes: PfHPPD variant P215L, E335P, G336F
On to B1, for which the “share of tested maize events with good to high tolerance, 15% or less bleached leaf area” value is on record as “Approximately 40%”; the “share of tested maize events with less than 5% or no visual leaf damage” value is about 15%; the “number of maize T0 events in herbicide tolerance class 0 (41%-100% damaged leaf area)” value turned out to be 13; the “number of maize T0 events in herbicide tolerance class 1 (16%-41% damaged leaf area)” value came out at 37. The “number of maize T0 events in herbicide tolerance class 2 (6%-15% damaged leaf area)” value stood at 21 and the “number of maize T0 events in herbicide tolerance class 3 (0%-5% damaged leaf area)” value worked out at 13.

B2: FLP202: PfHPPD variant P215L, E335P, G336F, A340E (protein)
chain: MADLYENPMGLMGFEFIEFASPTPGTLEPIFEIMGFTKVATHRSKNVHLYRQGEINLILNNEPNSIASYFAAEHGPSVCGMAFRVKDSQKAYNRALELGAQPIHIDTGPMELNLPAIKGIGGAPLYLIDRFGEGSSIYDIDFVYLEGVERNPVGAGLKVIDHLTHNVYRGRMVYWANFYEKLFNFREARYFDIKGEYTGLTSKAMSAPDGMIRILLNEESSKGAGQIEEFLMQFNGEGIQHVAFLTDDLVKTWDALKKIGMRFMTAPPDTYYEMLEGRLPDHGEPVDQLQARGILLDGSSVEGDKRLLLQIFSETLMGPVFFEFIQRKGDDGFGPFNFKELFESIERDQVRRGVLTAD
modifications: HPPD variant - FLP202
notes: PfHPPD variant P215L, E335P, G336F, A340E
For the molecule B2, the “share of tested maize events with good to high tolerance, 15% or less bleached leaf area” value is on record as “More than 30%”; the “share of tested maize events with less than 5% or no visual leaf damage” value was about 13%; the “number of maize T0 events in herbicide tolerance class 0 (41%-100% damaged leaf area)” value is on record as 12; the “number of maize T0 events in herbicide tolerance class 1 (16%-41% damaged leaf area)” value was 49. For the same molecule, the “number of maize T0 events in herbicide tolerance class 2 (6%-15% damaged leaf area)” value is 16 and the “number of maize T0 events in herbicide tolerance class 3 (0%-5% damaged leaf area)” value was determined as 12.
